Assay results from doi:10.1101/2025.10.16.682774 (bioRxiv, 2025).

Molecular target: T1, flag-tagged p115 head domain (1-655) (human, UniProt O60763 1-655)
T1 sequence (looked up): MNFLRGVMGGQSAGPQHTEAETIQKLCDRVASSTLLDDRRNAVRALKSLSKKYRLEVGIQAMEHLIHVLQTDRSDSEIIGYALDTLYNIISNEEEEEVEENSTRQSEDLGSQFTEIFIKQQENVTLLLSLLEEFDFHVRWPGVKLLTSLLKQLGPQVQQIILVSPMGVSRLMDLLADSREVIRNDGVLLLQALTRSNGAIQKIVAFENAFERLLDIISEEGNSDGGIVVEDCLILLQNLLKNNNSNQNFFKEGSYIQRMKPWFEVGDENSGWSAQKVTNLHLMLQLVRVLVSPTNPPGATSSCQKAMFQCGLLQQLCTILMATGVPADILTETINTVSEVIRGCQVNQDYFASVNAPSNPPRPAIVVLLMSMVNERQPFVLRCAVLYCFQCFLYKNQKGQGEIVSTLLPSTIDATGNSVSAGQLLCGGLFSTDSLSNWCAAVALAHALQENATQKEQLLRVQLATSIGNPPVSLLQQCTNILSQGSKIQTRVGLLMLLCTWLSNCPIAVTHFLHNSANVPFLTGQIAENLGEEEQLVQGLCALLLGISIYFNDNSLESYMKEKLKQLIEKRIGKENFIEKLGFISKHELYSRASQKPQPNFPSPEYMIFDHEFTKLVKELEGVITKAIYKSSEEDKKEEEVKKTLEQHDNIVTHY
Assay: pull-down

B1: Sec16A(650-776)-GFP (domain or fragment, human, UniProt O15027 650-776, looked up)
chain: ALPDASPGNLEQPPDNMETLCAPQVCPLPLNSTTEAVHMLPHAGAPPLDTVYPAPEKRPSARTQGPVKCESPATTLWAQSELPDFGGNVLLAPAAPALYVCAKPQPPVVQPPEEAMSGQQSRNPSSA
binding result: binds
